From the nanobody polyreactivity screen of Harvey et al. (2022)

Assay: yeast display, Sf9 membrane polyspecificity reagent, FACS + sequencing; frameworks hold sequencing errors
Procedure, shortened: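 Galactose-induced (36–48 hours) yeast carrying a synthetic nanobody display library were exposed to 10% biotinylated, detergent-solubilized Sf9 membrane reagent at 4 °C for 1 hour. FACS followed streptavidin microbead enrichment, using low and high (top ~1%) gates for expression (anti-HA) and reagent binding (streptavidin). Colony PCR, MiSeq 2 × 250 sequencing and CDR-length filtering followed. Labels for polyreactivity reflect the gate of origin.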

Sequence | polyreactivity (PSR sort gate)
QVQIVESGGGLVQAGGSLRLSCAASGRIFRRYVMGWYRPAPGKERELVAAITKSGTSTYYADSVKGRFTISRDNAKNTVYLQMNSLKPEDTAVYYCAAVPYQSKYPRFGYWGQGTQVTVSS | high polyreactivity
QVQLVESGGGLVQAGGSLRLSCAASGSTFSNNAMGWYRQAPGKERELVATISQSGGSTYYADSVKGRFTISRDNAKNTVYLQMNSLKPEDTAVYYCNAESYLTGWWYDYWGQGTQVTVSS | high polyreactivity
QVQLVESGGGLVQAGGSLRLSCAASGIIFYYYAMGWYRQAPGKESELVADITYSGGSTYYADSVKGRFTISRDKAKNTVYLQMNSLKPEDTAVYYCAARVTVSHWPYYYDSSDYGGQGTQVTVSS | low polyreactivity
QVQLVESCGGLVQARGSLRLSCAACGRIFIRYALGWYSQAPGTERELVAAITRGGSTYYADSVKGRFTISRDNAKITVFLQMNSVKPEDTAVYYCAGRVGYPYYYWGQGTEVTVSS | high polyreactivity
QVQLVESGGGLVQAGGSLRLTCAASGSTFWFYAMGWYRQAPGKERELVATITIGGRTYADSVKGRYTISRDNAKNTVYLQMNSLKPEDTAVYYCAARRVRLEYVYGRYDYWGQGTQVTVSS | low polyreactivity
QVQLVESGGGLVQAGGSLRLSCAACGNTFYWNAMGLYRQAPGKERELVAAISTTGVSTYYADSVKGRFTISRDNAKNTVYLQMNSLKPEDTAVYYCAAEIIGYHTIYDYWGQGTQVTVSS | low polyreactivity
QVQLVESVGGLVQAGGSLRLSCAASGFTFDYYSMGWYRQATGKERELVAAITTAGSTNYADSVKGRFTISRDNAKNTVSLQINSLKPEDTAVYYCAAYWWPWDISWDDYWGQGTQVNVSS | high polyreactivity
QVQLVESGGGLVQAGGSLRLSCAASGSIFVPYAMGWYRQAPGKERELVAAISSRGGSTYYADSVKGRFTISRDTAKNTVYLQMNSLKPEDTAVYYCNTEISRNYYWALYGYWGQGTQVTVSS | low polyreactivity
QVQLVESGGGLVQAGGSLRLSCAASGSIFFANAMGWYRQAPGKERELVAAITGSGDITYYADSVKGRFTISRDNAKNTVYLQMNSLKPEDTAVYYCAKRYIYVTHLRHPRYYYWGQGTQVTVSS | low polyreactivity
QVQLVESGGGLVQAGGSLRLSCAASRSIFRYYTMGWYRQAPGKETELVASISRGGSTNYADSVKGRFTISRDNAKNTVYLQMNSLKPEDTAVYDCAAGWTTRYFGGVDYWGQGTQVTVSS | high polyreactivity
QVQLVESGGGLVQAGGSLRLSCAASGRTFTAYAMGWYRQAPGKERELVARITSVDSTNYADSVKGRFTISRDNAKNTVYLHMYSLKPDDTAVYYCNATFGYPFVDYDDYWGQVTQVTVSS | low polyreactivity
QVQLVESGGGLVQAGGILRLSCAASGLIFANNAMGWYRQAPGKERELVAAITGGGDGTYYADYVKGRFTISRDNAKNNVYFQMNSLKPEDTAVYYCAADYKYLGSEYCYWGQGTQVTVSS | low polyreactivity
QVQLVESGGGLVQAGGSLRLSCAASGSIFDWNAMGWYRQAPGKERELVAAISGTGGTKYADSVKGRFTISRDNAKNTVYLQMISLKPEDTAVYYCAVGLVPLRDGWHFYYEFDSWGQGTQVTVSS | low polyreactivity
QVQLQESGGGLVQAGGSLRLICAASCTISQEDWMGWYRQAPGKEREFVAAIGLGSNTNYADSLKGRFTISRDNAKITVYLQMNSLKPEDTAVYYCNNDSTNNPFQYDYWGQGTQVTVSS | low polyreactivity
QVQLVESGGCLVHAGGSLRVSSAASGITFILNAMGWYRQAHGKEREFVAAISTYRGNTYYADSVKGRFTISRDNVKNTFYLEMYSLKPEDTAVYYSNADLYFRQGDVDLLRYVYWVQGTQVTVSS | low polyreactivity
QVQLVESGGGLVQAGGSLRLSCAASGSTFHSNAMGGYRQAPGKERELVAAISSGGSTNYADSVKGRFTISRDNAKNTVYLQMNSLKPEDTAVYYCAAVWRYLGYTAMDYWGQGTQVTVSS | low polyreactivity
QFQHVESGGCLDQAGRSLRLSSAASGYIFVNAMGWYRQPPGKEMELVAAISSGGSTHYADSVKGRFTISRDNAKYTVYLQMNSLKPEDTAVYYCAAGSFYYGIVQGWYDYWGQGTQVTVSS | high polyreactivity
